# According to publication PMC4490372, “Architecture of TFIIIC and its role in RNA polymerase III pre-initiation complex assembly” (Nature Communications, 2015):
# T1: τ95 (Tfc1), τA subunit of endogenous S. cerevisiae TFIIIC (S. cerevisiae, UniProt P32367 1-649)
# T1 construct: τ95 (Tfc1), subunit of S. cerevisiae TFIIIC, endogenous subunit in the purified complex; source: endogenous, purified from S. cerevisiae strain SC2342 as part of TFIIIC (TAP tag on τ60)
# T1 sequence (looked up): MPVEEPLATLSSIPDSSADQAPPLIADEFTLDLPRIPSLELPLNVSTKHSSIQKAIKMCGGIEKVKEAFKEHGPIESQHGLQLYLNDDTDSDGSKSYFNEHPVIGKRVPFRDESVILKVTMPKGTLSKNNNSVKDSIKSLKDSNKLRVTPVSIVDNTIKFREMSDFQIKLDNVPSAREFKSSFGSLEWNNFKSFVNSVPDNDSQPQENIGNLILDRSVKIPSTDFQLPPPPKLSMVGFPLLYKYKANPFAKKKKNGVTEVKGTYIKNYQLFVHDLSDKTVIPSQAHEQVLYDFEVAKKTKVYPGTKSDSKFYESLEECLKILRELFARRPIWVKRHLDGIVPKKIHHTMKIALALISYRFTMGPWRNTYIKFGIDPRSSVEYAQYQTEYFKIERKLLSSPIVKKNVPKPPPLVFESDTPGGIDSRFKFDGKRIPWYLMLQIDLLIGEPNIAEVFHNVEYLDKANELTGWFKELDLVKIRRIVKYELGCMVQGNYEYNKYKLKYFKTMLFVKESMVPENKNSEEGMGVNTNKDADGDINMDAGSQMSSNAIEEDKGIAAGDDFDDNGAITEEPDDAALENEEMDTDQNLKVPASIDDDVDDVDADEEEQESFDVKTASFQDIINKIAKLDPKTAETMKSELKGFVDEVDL
# Biological target: T1, τ95 (Tfc1), τA subunit of endogenous S. …
# Assay: cross-linking; XL-MS: purified endogenous TFIIIC (30 μg, 1 μg/μl) cross-linked with H12/D12 DSS to 2 mM, 40 min at 37 °C; ld-score >25
# Details: both partners purified
binder,measurement,value
"τ55 (Tfc7), τA subunit of endogenous S. cerevisiae TFIIIC (natural protein, UniProt Q12415 1-435, looked up, τ55 (Tfc7), subunit of S. cerevisiae TFIIIC, endogenous subunit in the purified complex; source: endogenous, purified from S. cerevisiae strain SC2342 as part of TFIIIC (TAP tag on τ60)) MVVNTIYIARHGYRSNWLPEGPYPDPLTGIDSDVPLAEHGVQQAKELAHYLLSLDNQPEAAFASPFYRCLETVQPIAKLLEIPVYLERGIGEWYRPDRKPVIPVPAGYEILSKFFPGVISQEWDSTLTPNEKGETEQEMYMRFKKFWPLFIERVEKEYPNVECILLVTHAASKIALGMSLLGYDNPRMSLNENGDKIRSGSCSLDKYEILKKSYDTIDETDDQTSFTYIPFSDRKWVLTMNGNTEFLSSGEEMNWNFDCVAEAGSDADIKKRQMTKKTSSPIPEADDQTEVETVYISVDIPSGNYKERTEIAKSAILQYSGLETDAPLFRIGNRLYEGSWERLVGTELAFPNAAHVHKKTAGLLSPTEENETTNAGQSKGSSTANDPNIQIQEEDVGLPDSTNTSRDHTGDKEEVQSEKIYRIKERIVLSNVRPM",binding result,binds
